The source of these data is patent US20240301031A1 (JIANGSU HENGRUI PHARMACEUTICALS, published 2024).

Assay [1] has as its target T1, mouse BAFF (BAF-M521y, Acro Biosystems) (mouse, UniProt Q9WU72 127-309).
T1 construct: Bought protein
Put plainly: SPR (Biacore), sample captured on Protein A, antigen flowed, 1:1 fit.

Assay [2] has as its target T2, cynomolgus monkey APRIL (APR-CM410B, Kactus) (cynomolgus monkey).
T2 chain: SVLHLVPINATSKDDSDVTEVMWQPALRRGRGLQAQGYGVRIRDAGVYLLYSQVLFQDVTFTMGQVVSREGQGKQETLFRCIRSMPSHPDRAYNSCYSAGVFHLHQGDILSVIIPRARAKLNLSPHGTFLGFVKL
The description is as above.

The target of assay [3] is T3, mouse APRIL (7907-AP/CF, R&D Systems) (mouse, UniProt Q9D777 96-241, limits assumed).
T3 construct: Bought protein
T3 sequence (looked up): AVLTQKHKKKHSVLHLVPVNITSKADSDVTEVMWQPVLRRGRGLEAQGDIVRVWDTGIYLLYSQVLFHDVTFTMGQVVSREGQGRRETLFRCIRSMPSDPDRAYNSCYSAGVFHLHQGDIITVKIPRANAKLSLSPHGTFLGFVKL
Described as above.

Assay [4] deals with T4, human BAFF (10056-HNCH, Sino biological) (human, UniProt Q9Y275 134-285).
T4 construct: Bought protein
Described as above.

The target in assay [5] is T5, human APRIL (5860-AP-010/CF, R&D Systems) (human, UniProt O75888 115-250, limits assumed).
T5 construct: Bought protein
T5 sequence (looked up): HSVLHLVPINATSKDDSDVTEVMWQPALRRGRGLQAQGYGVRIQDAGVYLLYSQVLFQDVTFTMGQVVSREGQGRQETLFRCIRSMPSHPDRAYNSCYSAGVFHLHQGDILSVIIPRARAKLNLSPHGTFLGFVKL
The description is as above.

Assay [6] concerns the target T5, human APRIL (5860-AP-010/CF, R&D …). Nature of the assay: cell-based or functional assay.
Assay [7] shares this target. Put plainly: competition ELISA: biotin-labeled APRIL to coated TACI. As to the method:
(§1) A receptor protein was diluted to 2 μg/mL with PBS at pH 7.4 (BasalMedia, B320) and added to a 96-well microplate (Corning, 3590) at 100 μL/well. The plate was incubated at 4° C. overnight. After the liquid was discarded, 200 μL of 1% Casein blocking solution (Thermo, 37528) was added to each well for blocking, and the plate was incubated at 37° C. for 2 h. After the blocking was completed, the blocking solution was discarded, and the plate was washed 3 times with a PBST buffer (PBS at pH 7.4 containing 0.1% tween-20) for later use. A biotin-labeled ligand protein at a fixed concentration was mixed with the antibody or fusion protein diluted in gradient, pre-incubated at 37° C. for 30 min, and added to a blocked microplate. The plate was incubated at 37° C. for 1.5 h. After the incubation was completed, the plate was washed 3 times with PBST. 100 μL of streptavidin-HRP (Invitrogen, 434323, diluted at a ratio of 1:4000) was added to each well, and the plate was incubated at 37° C. for 1 h. The supernatant was removed, and the plate was washed 3 times with PBST. […] The plate was read for absorbance values at 450 nm on a microplate reader, the curves for the inhibition of the binding of the ligands to the receptors were fitted with software, and the IC₅₀ values were calculated. […]

In assay [8] the target is T4, human BAFF (10056-HNCH, Sino biological). Nature of the assay: competition ELISA: biotin-labeled BAFF to coated BCMA. As to the method: as §1
For orientation: An ELISA detects its analyte on a solid surface through an enzyme-linked reagent.

Assay [9] shares this target. Nature of the assay: competition ELISA: biotin-labeled BAFF to coated BAFF-R. How it is done:
The blocking activity of the antibodies and the fusion proteins for receptors and ligands such as BAFF/BAFF-R, BAFF/BCMA, BAFF/TACI, APRIL/BCMA, APRIL/TACI, and p40/IL-12R1 was assayed by the ELISA method. The specific procedures were as follows:
A receptor protein was diluted to 2 μg/mL with PBS at pH 7.4 (BasalMedia, B320) and added to a 96-well microplate (Corning, 3590) at 100 μL/well. The plate was incubated at 4° C. overnight. After the liquid was discarded, 200 μL of 1% Casein blocking solution (Thermo, 37528) was added to each well for blocking, and the plate was incubated at 37° C. for 2 h. After the blocking was completed, the blocking solution was discarded, and the plate was washed 3 times with a PBST buffer (PBS at pH 7.4 containing 0.1% tween-20) for later use. A biotin-labeled ligand protein at a fixed concentration was mixed with the antibody or fusion protein diluted in gradient, pre-incubated at 37° C. for 30 min, and added to a blocked microplate. The plate was incubated at 37° C. for 1.5 h. After the incubation was completed, the plate was washed 3 times with PBST. 100 μL of streptavidin-HRP (Invitrogen, 434323, diluted at a ratio of 1:4000) was added to each well, and the plate was incubated at 37° C. for 1 h. The supernatant was removed, and the plate was washed 3 times with PBST. 100 μL of TMB chromogenic substrate (KPL, 5120-0077) was added to each well, and the plate was incubated at room temperature for 10-15 min. The reaction was stopped by adding 50 μL of 1 M H₂SO₄ to each well. The plate was read for absorbance values at 450 nm on a microplate reader, the curves for the inhibition of the binding of the ligands to the receptors were fitted with software, and the IC₅₀ values were calculated.

B1: RCT-18 (Telitacicept) (Fc fusion)
chain: SRVDQEERFPQGLWTGVAMRSCPEEQYWDPLLGTCMSCKTICNHQSQRTCAAFCRSLSCRKEQGKFYDHLLRDCISCASICGQHPKQCAYFCENKLRSPVNLPPELDKTHTCPPCPAPEAEGAPSVFLFPPKPKDTLMISRTPEVTCVVVDVSHEDPEVKFNWYVDGVEVHNAKTKPREEQYNSTYRVVSVLTVLHQDWLNGKEYKCKVSNKALPSSIEKTISKAKGQPREPQVYTLPPSRDELTKNQVSLTCLVKGFYPSDIAVEWESNGQPENNYKTTPPVLDSDGSFFLYSKLTVDKSRWQQGNVFSCSVMHEALHNHYTQKSLSLSPGK
notes: Positive control; TACI part is positions 13-118 of the extracellular region of human TACI, the rest is Fc
For B1, the Kd in assay [1] is 0.121 nM; in assay [2], 0.0436 nM; in [3], 0.00671 nM; in assay [4] it was 0.186 nM; in assay [5], 0.0281 nM. The koff in assay [1] is 8.98e-05 s⁻¹; in assay [2], 0.000507 s⁻¹; in assay [3] it was 1.69e-05 s⁻¹; in [4] it was 0.00018 s⁻¹; in assay [5] it was 0.000658 s⁻¹. Moreover, the kon came to 740000 M⁻¹ s⁻¹ in assay [1]; 1.16e+07 M⁻¹ s⁻¹ in [2]; 2.52e+06 M⁻¹ s⁻¹ in assay [3]; 964000 M⁻¹ s⁻¹ in assay [4]; 2.34e+07 M⁻¹ s⁻¹ in assay [5]. Also, the “IC50 (nM) for the inhibition of the APRIL-induced B cell proliferation” value in assay [6] turned out to be 1.09 nM. Besides, the values for the IC50 in assay [7], in assay [8] and in assay [9] were 3.3 nM, 0.973 nM and 19.2 nM, respectively.

By Kd is commonly meant the equilibrium constant for the complex coming apart. A word on the koff: it is the first-order rate constant of dissociation. In general, kon refers to a measure of how fast the partners come together. In general, IC50 refers to the concentration at which inhibition is half-maximal.
